Laboratory results published in patent publication US7888090B2, “Mutants of O6-alkylguanine-DNA alkyltransferase” (Ecole Polytechnique Federale de Lausanne, priority 2004, dated 2011).

How the values were obtained:
DNA = DNA binding in vitro (co-purified DNA, UV spectroscopy); parameters: species or system E. coli
Method: The interaction with DNA is e.g. quantified by assessing the amount of copurified DNA from E. coli extracts under conditions of low salt and absence of DNase. This is compared between parallel purifications of fusion proteins (e.g. fusions to GST) of wild type (human) and mutant AGT by spectroscopic methods (ratio of absorbance at 260 and 280 nm). Alternatively the interaction of AGT with DNA is measured as the inhibition of AGT reactivity with BG-Cy3 (O^6-(4-aminomethyl-benzyl)-guanine coupled to Cy3) as substrate in the presence of DNA. This approach takes advantage of a marked increase of fluorescence of the Cy3 fluorophore upon reaction of BG-Cy3 with AGT. The reaction kinetics of AGT with a Cy3-labeled benzylguanine derivative is followed by fluorescence intensity measurements over several hours at various concentrations of salmon sperm DNA.
For comparing the DNA binding properties of the protein in vitro, the harvested cells are resuspended, and the GST fusion protein is purified following the same method but in a buffer containing 50 mM phosphate, 0.1 M NaCl, 1 mM DTT. In the dialysed samples, the amount of subsequently co-purified DNA is estimated by UV spectroscopy. Spectra are recorded using a Perkin Elmer Lambda 10. The content of DNA corresponds to the ratio of the extinctions at 280 and 260 nm. […]

[1] = Expression yield of soluble GST-AGT fusion protein; parameters: species or system E. coli; details: comparator not stated
Method: Expression yield is measured in E. coli or in any other of the standard production cells for genetically modified proteins, e.g. yeast, or preferably insect cells, CHO cells or HeLa cells. For quantifying expression yield, AGT fusion proteins may be chosen such that the fusion partner allows easy purification and quantification. For example, expression yield in E. coli is determined by measuring and comparing the yield of soluble and insoluble GST-wild type AGT fusion protein and GST-mutant AGT fusion protein from parallel E. coli expression cultures. Samples of the soluble fractions and insoluble fractions (i.e. the inclusion bodies) after cell lysis are subjected to SDS-PAGE, and the band staining intensities of the corresponding AGT fusion proteins are compared. Soluble protein is quantified after purification of the fusion protein from cell extracts by affinity chromatography (e.g. for GST-AGT fusion proteins by glutathione sepharose) by subjecting the purified fractions to a protein concentration assay (Bradford, Anal Biochem 72:248-54, 1976). The expression yield of similar proteins in the soluble fraction (difference in point mutations) can be used as a measure for protein stability in the unpurified as well as the purified state (Ohage et al., J Mol Biol 291:1119-1128, 1999; Wirtz et al., Protein Sci 8: 2245-50, 1999). Therefore, this is taken as a measure of folding stability and aggregation tendency.
Protein expression from this vector is carried out in E. coli strain BL21. An exponentially growing culture is induced with 0.5 mM IPTG, and the expression is carried out for 3.5 h at 24° C.
Purification: The harvested cells are resuspended in a buffer containing 50 mM phosphate, 0.5 M NaCl, 1 mM DTT, supplemented with 1 mM PMSF and 2 μg/ml aprotinin, and disrupted by lysozyme and sonification. The cell debris are separated by centrifugation at 40000×g. The extract is applied to pre-equilibrated glutathione sepharose (Amersham) which is then washed with 20 bed volumes (50 mM phosphate, 0.5 M NaCl, 1 mM DTT). The mutated GST-AGT fusion protein is eluted with 10 mM reduced glutathione in 50 mM Tris·HCl pH 7.9. The purified protein is dialyzed against 50 mM HEPES pH 7.2; 1 mM DTT; 30% glycerol and then stored at −80° C.
Determination of protein yield: Purity and relative amounts of the GST-AGT fusion proteins are compared by running samples on SDS-PAGE. UV spectra of the pure fractions are recorded using a Perkin Elmer Lambda 10. For protein samples containing no significant amount of DNA, the extinction at 280 nm as a measure of protein content is compared to that of wild type hAGT or PGEG-hAGT that were purified under the same conditions.

[2] = Periplasmic expression / stability under oxidizing conditions; parameters: species or system E. coli
Method: The activities towards AGT substrates are measured after purification without addition of reducing agents such as dithiothreitol or beta-mercaptoethanol. Alternatively, the activities of mutant AGT and wild type human are compared after their export into cellular compartments with oxidising redox potential (e.g. the periplasm of E. coli due to their fusion to appropriate signal sequences. Activity towards AGT substrates under reducing and oxidising conditions is compared by performing the reactions in the presence or absence of reducing agents such as dithiothreitol or beta-mercaptoethanol.
The mutant AGT gene of Example 1 is amplified and cloned as described in Example 1 with the oligonucleotides SEQ ID NO:3, SEQ ID NO:10 and SEQ ID NO:4, SEQ ID NO:9 causing the further mutation Cys62Ala in the gene upon their incorporation by PCR. Protein expression, purification and determination of yield is carried out as described in Example 1. The mutant gene is PCR amplified with the primers SEQ ID NO:11, SEQ ID NO:12 that contain SfiI restriction sites to subclone the gene in fusion to the g3 protein of filamentous phage in the vector pAK100 (Krebber et al., J Immunol Methods 201:35-55, 1997). […] The supernatant is directly subjected to quantification of protein yield via SDS-PAGE and activity assays as described in Example 1.
Stability under oxidizing conditions: The mutant gene is PCR amplified with the primers SEQ ID NO:11 and SEQ ID NO:28 to subclone the gene into pAK100, as described in Example 2. […] To compare the reactivity of […] (Juillerat et al., Chem Biol 10:313-317, 2003) and the mutant, samples are incubated with 1 µM BG-Bt for 50 min, quenched with SDS-Laemmli buffer and analyzed by western blotting using neutravidin peroxidase conjugate (Pierce) or a monoclonal mouse anti-FLAG IgG antibody (M2, Sigma) and a secondary anti-mouse-IgG::HRP conjugate, and Renaissance reagent plus (NEN). […] The anti-FLAG IgG antibody is used to estimate the total amount of soluble AGT protein, whereas neutravidin quantifies the reactive portion of it. […]

[3] = Activity assay with biotinylated O^6-benzylguanine (BG-Bt), Western blotting; assay type: biochemical; details: statement in words
Method in brief: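 Purified mutant GST-AGT (0.2 μM) reacted with 1 μM biotinylated O^6-benzylguanine in 50 mM HEPES pH 7.2, 1 mM DTT at room temperature. Time-point aliquots quenched with O^6-benzylguanine in SDS buffer. Biotinylated protein detected by Western blot with neutravidin-peroxidase, band intensity quantified.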

B1: Cys62Ala, Lys125Ala, Ala127Thr, Arg128Ala, Asn157Gly, Ser159Glu, truncated after Gly182: particularly preferred hAGT mutant with the listed mutations (protein, UniProt P16455 1-207, looked up, variant C62A K125A A127T R128A N157G S159E del183-207)
Methylated-DNA--protein-cystei …: MDKDCEMKRTTLDSPLGKLELSGCEQGLHEIKLLGKGTSAADAVEVPAPAAVLGGPEPLMQATAWLNAYFHQPEAIEEFPVPALHHPVFQQESFTRQVLWKLLKVVKFGEVISYQQLAALAGNPAATAAVGGAMRGNPVPILIPCHRVVCSSGAVGGYEGGLAVKEWLLAHEGHRLGKPGLG
With B1 the “reduced DNA binding” value (DNA) was “reduced DNA binding”, the “expression yield in E. coli” value [1] was “increased expression yield” and the sensitivity to oxidation [2] was “reduced sensitivity to oxidation”. The “activity towards O^6-benzylguanine substrates” value [3] was “increased reactivity”.
